We go through 33 molecules from patent US20020150536, “Nucleic acid ligands to integrins” (GILEAD SCIENCES, INC., published 2002).

The chains are these.
B1: 15.19 (ssRNA)
RNA: GGGAGACAAGAAUAAACGCUCAAUGUAGCCGCAUGUCGAGCAGCAAUUCCUGCCAUUGUAGGUUCGACAGGAGGCUCACAACAGGC
modifications: 2'-F C and U
B2: 7.13 (ssRNA)
RNA: GGGAGACAAGAAUAAACGCUCAAUGUAGUCGCAUGUCGAGCAGCAAUUCCUGCCAUUGUAGGUUCGACAGGAGGCUCACAACAGGC
modifications: 2'-F C and U
B3: 7.66 (ssRNA)
RNA: GGGAGACAAGAAUAAACGCUCAAGUGAACCGAUAAGCGAAAGUAGUACCCCUGCUUGACUACUUUCGACAGGAGGCUCACAACAGGC
modifications: 2'-F C and U
B4: 15.13 (ssRNA)
RNA: GGGAGACAAGAAUAAACGCUCAAGCGGGAUUUUCCUGAUCAUCCCACUGAUUCGGGGCCUUACUUCGACAGGAGGCUCACAACAGGC
modifications: 2'-F C and U
B5: 15.43 (ssRNA)
RNA: GGGAGACAAGAAUAAACGCUCAACGCCGUUAUCACGACGUGCGUUCUGGGCGGUACUCGCGCAUUCGACAGGAGGCUCACAACAGGC
modifications: 2'-F C and U
B6: 7.5 (ssRNA)
RNA: GGGAGACAAGAAUAAACGCUCAAGGUAGUAAAUGGACUCCUGCCAUCCAAUACUAUCUCUGAGUUCGACAGGAGGCUCACAACAGGC
modifications: 2'-F C and U
B7: 15.20 (ssRNA)
RNA: GGGAGACAAGAAUAAACGCUCAAUUCAACGCUGUCCAAGGGCUUAUAUGAGCGCAUUAUACCCUUCGACAGGAGGCUCACAACAGGC
modifications: 2'-F C and U
B8: 7.38 (ssRNA)
RNA: GGGAGACAAGAAUAAACGCUCAAUUCAACGCUGUCCAAGGGCUUAUAUGAGCGCGUUAUACCCUUCGACAGGAGGCUCACAACAGGC
modifications: 2'-F C and U
B9: 15.53 (ssRNA)
RNA: GGGAGACAAGAAUAAACGCUCAAUUCAACGCUGUCCUAGGGCUUAUAUGAGCGCAGGAUACCCUUCGACAGGAGGCUCACAACAGGC
modifications: 2'-F C and U
B10: 7.77 (ssRNA)
RNA: GGGAGACAAGAAUAAACGCUCAAUUCAACGAUGUUGAGGGGCUUAUAUGAGCGCAUUAUACCCUUCGACAGGAGGCUCACAACAGGC
modifications: 2'-F C and U
B11: 7.54 (ssRNA)
RNA: GGGAGACAAGAAUAAACGCUCAAUUCGACGCUGUUCAAGGGCUUAUAUGAGCGCGUUAUACCCUUCGACAGGAGGCUCACAACAGGC
modifications: 2'-F C and U
B12: 15.39 (ssRNA)
RNA: GGGAGACAAGAAUAAACGCUCAAUCAAUCUCGGACUAGACUAACGACCUUGGUUGACGCUCAUUCGACAGGAGGCUCACAACAGGC
modifications: 2'-F C and U
B13: 7.41 (ssRNA)
RNA: GGGAGACAAGAAUAAACGCUCAAGCGAGCCUAUUGUCUAAGAUGCACCAGGCCUGUUAAGCAUUUCGACAGGAGGCUCACAACAGGC
modifications: 2'-F C and U
B14: 15.34 (ssRNA)
RNA: GGGAGACAAGAAUAAACGCUCAAUCCCACCCUGCCUUGUCUGUUUGAUAGAGACACUGUCCUUUUCGACAGGAGGCUCACAACAGGC
modifications: 2'-F C and U
B15: 15.3 (17.17) (ssRNA)
RNA: GGGAGACAAGAAUAAACGCUCAAUUCAACGUUGUCCAAGGGCUUAUAUGAGCGGAUUACCCUUCGACAGGAGGCUCACAACAGGC
modifications: 2'-F C and U
B16: 15.17 (ssRNA)
RNA: GGGAGACAAGAAUAAACGCUCAAUUCAACGUUGUCAAAGGGCUUAUACGGGCGGAUUACCCUUCGACAGGAGGCUCACAACAGGC
modifications: 2'-F C and U
B17: 15.7 (ssRNA)
RNA: GGGAGACAAGAAUAAACGCUCAAUUCUACGAUGUCAAAGGGCUUAUAUGAGCGGAUUACCCUUCGACAGGAGGCUCACAACAGGC
modifications: 2'-F C and U
B18: 17.1 (ssRNA)
RNA: GGGAGACAAGAAUAAACGCUCAAUUCAACGCUGUCAAAGGGCUUAUAUAAGCGGAUUACCCUUCGACAGGAGGCUCACAACAGGC
modifications: 2'-F C and U
B19: 15.10 (ssRNA)
RNA: GGGAGACAAGAAUAAACGCUCAAUUCAACGCUGUUCAAGGGCUUAUAUGAGCGGAUUACCCUUCGACAGGAGGCUCACAACAGGC
modifications: 2'-F C and U
B20: 17.8 (ssRNA)
RNA: GGGAGACAAGAAUAAACGCUCAAUUCAACGUUGUCUAAGGGCUUAUAUGAGCGGAUUACCCUUCGACAGGAGGCUCACAACAGGC
modifications: 2'-F C and U
B21: 15.2 (ssRNA)
RNA: GGGAGACAAGAAUAAACGCUCAAUUCAACGUUGUCAAAGGGCUUAUAUGAGCGGAUUACCCUUCGACAGGAGGCUCACAACAGGC
modifications: 2'-F C and U
B22: 15.8 (ssRNA)
RNA: GGGAGACAAGAAUAAACGCUCAAUUCGACGCUGUUGAAGGGCUUAUACGAGCGGAUUACCCUUCGACAGGAGGCUCACAACAGGC
modifications: 2'-F C and U
B23: 15.14 (ssRNA)
RNA: GGGAGACAAGAAUAAACGCUCAAUUCAACAUUGUCCAAGGGCUUAUAUGAGCGGAUUACCCUUCGACAGGAGGCUCACAACAGGC
modifications: 2'-F C and U
B24: 17.13 (ssRNA)
RNA: GGGAGACAAGAAUAAACGCUCAAUUCAACGCUGUCCAAGGGCUUAUAUGGGCGGAUUACCCUUCGACAGGAGGCUCACAACAGGC
modifications: 2'-F C and U
B25: 15.18 (ssRNA)
RNA: GGGAGACAAGAAUAAACGCUCAAUUCAACGCUGUGAAGGGCUUAUAUGAGCGGAUUACCCUUCGACAGGAGGCUCACAACAGGC
modifications: 2'-F C and U
B26: 17.2 (ssRNA)
RNA: GGGAGACAAGAAUAAACGCUCAAUUCUACGCUGUGAAGGGCUUAUAUGAGCGGAUUACCCUUCGACAGGAGGCUCACAACAGGC
modifications: 2'-F C and U
B27: 17.11 (ssRNA)
RNA: GGGAGACAAGAAUAAACGCUCAAUUCUACGCUGUGAAGGGCUUAUAUGAGCGAAUUACCCUUCGACAGGAGGCUCACAACAGGC
modifications: 2'-F C and U
B28: 15.50 (17.3) (ssRNA)
RNA: GGGAGACAAGAAUAAACGCUCAAUUCGACGCUGUGAAGGGCUUAUACGAGCGGAUUACCCUUCGACAGGAGGCUCACAACAGGC
modifications: 2'-F C and U
B29: 15.46 (17.20) (ssRNA)
RNA: GGGAGACAAGAAUAAACGCUCAAUUCGACGCUGUGAAGGGCUUAUAUGAGCGGAUUACCCUUCGACAGGAGGCUCACAACAGGC
modifications: 2'-F C and U
B30: 15.4 (ssRNA)
RNA: GGGAGACAAGAAUAAACGCUCAAUGAUUUCAUGACUUAUGCCGCCGGCAUGACUUCAAUGACGUUCGACAGGAGGCUCACAACAGGC
modifications: 2'-F C and U
B31: 15.21 (ssRNA)
RNA: GGGAGACAAGAAUAAACGCUCAACGGUGAAGACCUCUAUUAACAACAUGACCUGCCUGCGUUGUUCGACAGGAGGCUCACAACAGGC
modifications: 2'-F C and U
B32: 17.5 (ssRNA)
RNA: GGGAGACAAGAAUAAACGCUCAAUUCGACGCUGUGAAGGGCUUAUAUGAGCGGAUACACCCUUCGACAGGAGGCUCACAACAGGC
modifications: 2'-F C and U
B33: 15.5 (ssRNA)
RNA: GGGAGACAAGAAUAAACGCUCAAGCAUUCAAAAUUUGCGAGAACGAAUAGAAGUCCGAGAGCCUUCGACAGGAGGCUCACAACAGGC
modifications: 2'-F C and U

integrin alphaV beta3, sequence (P06756 31-889, chain 1 of 3): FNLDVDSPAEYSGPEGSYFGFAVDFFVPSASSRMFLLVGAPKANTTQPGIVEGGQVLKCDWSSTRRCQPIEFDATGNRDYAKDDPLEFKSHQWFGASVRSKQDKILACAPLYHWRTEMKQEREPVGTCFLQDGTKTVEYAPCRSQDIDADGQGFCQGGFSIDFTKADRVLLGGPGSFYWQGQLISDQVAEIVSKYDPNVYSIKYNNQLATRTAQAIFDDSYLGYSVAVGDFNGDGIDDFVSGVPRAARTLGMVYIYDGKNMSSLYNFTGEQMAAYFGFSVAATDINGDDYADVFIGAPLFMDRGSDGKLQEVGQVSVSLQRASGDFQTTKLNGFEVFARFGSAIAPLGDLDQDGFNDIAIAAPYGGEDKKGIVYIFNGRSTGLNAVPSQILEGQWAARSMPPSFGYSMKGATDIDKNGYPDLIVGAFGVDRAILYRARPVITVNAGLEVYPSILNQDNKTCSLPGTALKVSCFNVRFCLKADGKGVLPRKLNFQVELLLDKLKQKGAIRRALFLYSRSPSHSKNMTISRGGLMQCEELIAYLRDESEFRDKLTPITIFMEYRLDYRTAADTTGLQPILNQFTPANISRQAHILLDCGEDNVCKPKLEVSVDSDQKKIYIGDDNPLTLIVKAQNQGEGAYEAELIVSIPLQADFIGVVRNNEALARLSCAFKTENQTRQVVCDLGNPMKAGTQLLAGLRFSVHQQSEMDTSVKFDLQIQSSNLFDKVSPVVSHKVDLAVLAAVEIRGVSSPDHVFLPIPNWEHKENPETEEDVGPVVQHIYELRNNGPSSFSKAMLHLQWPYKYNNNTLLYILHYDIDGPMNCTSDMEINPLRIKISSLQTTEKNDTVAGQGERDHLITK
integrin alphaV beta3, sequence (P06756 891-1048, chain 2 of 3): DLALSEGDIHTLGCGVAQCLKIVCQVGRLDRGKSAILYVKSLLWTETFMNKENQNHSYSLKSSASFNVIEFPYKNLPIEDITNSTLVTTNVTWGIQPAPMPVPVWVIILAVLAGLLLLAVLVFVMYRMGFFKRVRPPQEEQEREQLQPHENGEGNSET
integrin alphaV beta3, sequence (P05106 27-788, chain 3 of 3): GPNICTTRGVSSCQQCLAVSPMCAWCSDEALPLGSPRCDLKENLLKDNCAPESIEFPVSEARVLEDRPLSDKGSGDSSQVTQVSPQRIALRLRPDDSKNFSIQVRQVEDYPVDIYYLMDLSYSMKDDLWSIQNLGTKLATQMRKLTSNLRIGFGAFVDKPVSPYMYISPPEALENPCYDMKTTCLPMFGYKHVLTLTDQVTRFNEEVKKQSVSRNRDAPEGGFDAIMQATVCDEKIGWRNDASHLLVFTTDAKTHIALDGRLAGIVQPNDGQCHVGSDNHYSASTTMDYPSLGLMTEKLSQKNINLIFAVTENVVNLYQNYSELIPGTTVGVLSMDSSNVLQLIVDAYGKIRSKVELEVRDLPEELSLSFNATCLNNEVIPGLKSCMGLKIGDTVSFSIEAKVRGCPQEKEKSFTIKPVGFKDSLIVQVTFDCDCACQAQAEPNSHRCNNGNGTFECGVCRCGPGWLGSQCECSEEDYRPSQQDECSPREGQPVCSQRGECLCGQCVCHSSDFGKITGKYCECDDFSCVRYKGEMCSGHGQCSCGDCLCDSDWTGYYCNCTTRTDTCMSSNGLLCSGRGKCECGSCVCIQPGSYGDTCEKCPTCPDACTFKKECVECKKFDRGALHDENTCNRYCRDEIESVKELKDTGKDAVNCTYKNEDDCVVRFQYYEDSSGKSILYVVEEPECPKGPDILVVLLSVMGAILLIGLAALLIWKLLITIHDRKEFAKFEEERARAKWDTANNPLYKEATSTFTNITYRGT

The target of this data set is integrin alphaV beta3 (Homo sapiens, UniProt P06756;P06756;P05106 P06756:31-889,P06756:891-1048,P05106:27-788). As to the kind of experiment: microtiter plate, streptavidin-AP; Mg2+, Ca2+, Mn2+, pH 7.5, 37 C. The conditions noted are these: label: 5'-biotin. Here is the method:
The affinity of individual RNAs and RNA pools for αᵥβ₃ was determined by titration of biotinylated RNA with a small quantity of immobilized integrin. Bound RNA was detected through the biotin moiety. Biotinylated RNA was prepared according to standard transcription protocols, but including a 5-fold molar excess of a 5′-biotin-modified GMP over GTP in the reaction mixture. Methods for synthesizing 5′-biotin-modified guanosine nucleotides are described in WO 98/30720 entitled “Bioconjugation of Oligonucleotides,” specifically incorporated herein by reference in its entirety. The modified nucleotide is incorporated at the 5′ end of the transcript in proportion to its representation in the guanosine pool. 96-well microtiter plates (Immulon 2, Dynatech Laboratories, Inc., Chantilly, Va.) were coated overnight at 4° C. with 100 μL purified αᵥβ₃ at a concentration of 0.25 μg/mL in 20 mM TrisHCl, pH 7.5, 150 mM NaCl, 1 mM MgCl₂, 2 mM CaCl₂, 0.1 mM MnCl₂. Coating concentrations were 0.8 μg/mL for αIIbβ₃ and 0.3 μg/mL for αᵥβ₅. Wells were blocked with 200 μL of a solution of 3% BSA in the same buffer (1 hour at room temperature) then rinsed 3 times with 200 μL binding buffer (50 mM TrisHCl, pH 7.5, 137 mM NaCl, 2.7 mM KCl, 1 mM MgCl₂, 2 mM CaCl₂, 0.1 mM MnCl₂, 0.1% BSA). Individual RNAs or RNA pools were denatured briefly at 93° C. in binding buffer without divalent cations or BSA, then serially diluted in the same buffer. 50 μL binding buffer containing 2×-concentrations of divalent cations and BSA were added to each well, followed by 50 μL RNA dilution. RNAs were allowed to incubate in the integrin-coated wells at 37° C. for 30-60 minutes. Unbound RNAs were removed by 3 rapid washes in binding buffer. To detect bound RNA, 100 μL of a 1:2500 dilution in binding buffer of streptavidin-alkaline phosphatase conjugate (Calbiochem) were incubated in each well for 30 minutes at room temperature, followed by three rapid washes, as above. 100 μL/well p-nitrophenyl phosphate (Sigma Chemical Co., St. Louis, Mo.) was added and incubated at room temperature for 30 minutes. Color development was monitored by absorbance at 405 nm.
As usually defined, the Kd is the concentration at which binding is half-saturated. A low value points to higher affinity. In the case of B1, binding was characterised by a dissociation constant (Kd) of 770 nM.
To B2 belongs more than 1000 nM; to B3, more than 1000 nM; to B4, 790 nM.
Next, B5: 45 nM.
In the case of B6, the Kd is more than 1000 nM.
The molecule B7 showed a Kd of 20 nM. In other words, the double-digit nanomolar range.
To B8 belongs 49 nM.
The molecule B9 yielded an equilibrium dissociation constant (Kd) of 70 nM.
To B10 belongs 770 nM; to B11, 230 nM.
Next, B12: 410 nM; B13: more than 1000 nM; B14: 190 nM.
Next, B15: 8 nM; B16: 4 nM.
For the molecule B17, the Kd stood at 5 nM.
B18 returned a Kd of 380 nM.
Take B19: the Kd is 20 nM. This Kd lies about 19-fold lower than the previous one.
As to B20, binding was put at a Kd of 18 nM.
To B21 belongs 6 nM.
Next, B22: 5 nM; B23: 6 nM.
To B24 belongs 10 nM; to B25, 2 nM; to B26, 2 nM.
B27 yielded a Kd of 4 nM.
As for B28, the Kd was 30 nM.
Next, B29: 40 nM; B30: 2000 nM; B31: 200 nM.
To B32 belongs 5 nM; to B33, 4000 nM.
